# Experimental data: patent publication US20220242957A1 (MARENGO THERAPEUTICS, published 2022)
# Positions count from the first letter of the chain named. Numbers in names are those of the source.
# B1: BIM0552 (antibody, human IgG1, lambda)
# heavy: EVQLVESGGGLVQPGGSLRLSCAASGFTFSNDEMNWIRQAPGKGLEWVSYISSRSSTIYYADAVKGRFTISRDNARNSLYLQMNSLRAEDTAVYYCARGVDGDFSFDYWGQGTLVTVSSASTKGPSVFPLAPSSKSTSGGTAALGCLVKDYFPEPVTVSWNSGALTSGVHTFPAVLQSSGLYSLSSVVTVPSSSLGTQTYICNVNHKPSNTKVDKRVEPKSCDKTHTCPPCPAPELLGGPSVFLFPPKPKDTLMISRTPEVTCVVVDVSHEDPEVKFNWYVDGVEVHNAKTKPREEQYNSTYRVVSVLTVLHQDWLNGKEYKCKVSNKALPAPIEKTISKAKGQPREPQVCTLPPSREEMTKNQVSLSCAVKGFYPSDIAVEWESNGQPENNYKTTPPVLDSDGSFFLVSKLTVDKSRWQQGNVFSCSVMHEALHNHYTQKSLSLSPGK
# light: QLVLTQPPSVSGAPGQRVTISCTGSSSNIGAGYDVHWYQQLPGTAPKLLIYGNSNRPSGVPDRFSGSKSGTSASLAITGLQAEDEADYYCQSYDSSLSEEVFGGGTKLTVLGQPKANPTVTLFPPSSEELQANKATLVCLISDFYPGAVTVAWKADGSPVKAGVETTKPSKQSNNKYAASSYLSLTPEQWKSHRSYSCQVTHEGSTVEKTVAPTECS
# chain: not shown
# notes: Heavy chain entry ends in X = K or absent; also called multispecific molecule 80; aCSF1R BI117 half-arm antibody
# B2: BIM0542 (antibody, human IgG1, lambda)
# heavy: B1 heavy with R54G
# light: B1 light
# chain: not shown
# notes: Heavy chain entry ends in X = K or absent; also called multispecific molecule 70; aCSF1R BI117 C5-R2A half-arm antibody
# B3: BIM0543 (antibody, human IgG1, lambda)
# heavy: B1 heavy with Y50F, S53G, R54G
# light: B1 light
# chain: not shown
# notes: Half-arm (monovalent) anti-human CSF1R antibody, three chains as BIM0542; Heavy chain entry ends in X = K or absent; also called multispecific molecule 71; aCSF1R BI117 C9-R2A half-arm antibody
# B4: BIM0544 (antibody, human IgG1, lambda)
# heavy: B1 heavy with G99N, V100S, G102E, F104G
# light: B1 light
# chain: not shown
# notes: Half-arm (monovalent) anti-human CSF1R antibody, three chains as BIM0542; Heavy chain entry ends in X = K or absent; also called multispecific molecule 72; aCSF1R BI117 D1-R2A half-arm antibody
# B5: BIM0545 (antibody, human IgG1, lambda)
# heavy: B1 heavy with S52T, R54K, A63S
# light: B1 light
# chain: not shown
# notes: Half-arm (monovalent) anti-human CSF1R antibody, three chains as BIM0542; Heavy chain entry ends in X = K or absent; also called multispecific molecule 73; aCSF1R BI117 E2-R2B half-arm antibody
# B6: BIM0546 (antibody, human IgG1, lambda)
# heavy: B1 heavy with Y108V
# light: B1 light
# chain: not shown
# notes: Half-arm (monovalent) anti-human CSF1R antibody, three chains as BIM0542; Heavy chain entry ends in X = K or absent; also called multispecific molecule 74; aCSF1R BI117 G1-R2B half-arm antibody
# B7: BIM0547 (antibody, human IgG1, lambda)
# heavy: B1 heavy with S52T, R54K
# light: B1 light
# chain: not shown
# notes: Half-arm (monovalent) anti-human CSF1R antibody, three chains as BIM0542; Heavy chain entry ends in X = K or absent; also called multispecific molecule 75; aCSF1R BI117 G12-R2B half-arm antibody
# B8: BIM0549 (antibody, human IgG1, lambda)
# heavy: B1 heavy with G99S, V100S, D103S, F104T
# light: B1 light
# chain: not shown
# notes: Half-arm (monovalent) anti-human CSF1R antibody, three chains as BIM0542; Heavy chain entry ends in X = K or absent; also called multispecific molecule 77; aCSF1R BI117 A6-R3B half-arm antibody
# B9: BIM0550 (antibody, human IgG1, lambda)
# heavy: B1 heavy with R54S, K65T
# light: B1 light
# chain: not shown
# notes: Half-arm (monovalent) anti-human CSF1R antibody, three chains as BIM0542; Heavy chain entry ends in X = K or absent; also called multispecific molecule 78; aCSF1R BI117 A11-R3B half-arm antibody
# B10: BIM0551 (antibody, human IgG1, lambda)
# heavy: B1 heavy with G99N, V100S, G102S, F104G, Y108I
# light: B1 light
# chain: not shown
# notes: Half-arm (monovalent) anti-human CSF1R antibody, three chains as BIM0542; Heavy chain entry ends in X = K or absent; also called multispecific molecule 79; aCSF1R BI117 B2-R3B half-arm antibody
# B11: BIM0553 (antibody, human IgG1, lambda)
# heavy: B1 heavy with Y108F
# light: B1 light
# chain: not shown
# notes: Half-arm (monovalent) anti-human CSF1R antibody, three chains as BIM0542; Heavy chain entry ends in X = K or absent; also called multispecific molecule 81; aCSF1R BI117 C5-R3B half-arm antibody
# B12: BIM0566 (antibody, human IgG1, lambda)
# heavy: B1 heavy with G99S, V100G, D101R, G102L, F104G
# light: B1 light
# chain: not shown
# notes: Half-arm (monovalent) anti-human CSF1R antibody, three chains as BIM0542; Heavy chain entry ends in X = K or absent; also called multispecific molecule 85; aCSF1R BI117 C6-R3B half-arm antibody
# B13: BIM0567 (antibody, human IgG1, lambda)
# heavy: B1 heavy with D101E, G102S
# light: B1 light
# chain: not shown
# notes: Half-arm (monovalent) anti-human CSF1R antibody, three chains as BIM0542; Heavy chain entry ends in X = K or absent; also called multispecific molecule 86; aCSF1R BI117 D11-R3B half-arm antibody
# B14: BIM0555 (antibody, human IgG1, lambda)
# heavy: not shown
# light: SLVLTQPPSVSVAPGKTARITCGGNNIGSKSVHWYQQKPGQAPVLVVYDDSDRPSGIPERFSGSNSGNTATLTISRVEAGDEADYYCQVWDSSSDHVVFGGGTQLTVLGQPKANPTVTLFPPSSEELQANKATLVCLISDFYPGAVTVAWKADGSPVKAGVETTKPSKQSNNKYAASSYLSLTPEQWKSHRSYSCQVTHEGSTVEKTVAPTECS
# chain: not shown
# notes: Half-arm (monovalent) anti-human CSF1R antibody, three chains as BIM0542; Heavy chain entry ends in X = K or absent; also called multispecific molecule 83; aCSF1R BI123 B6-R3B half-arm antibody
# B15: BIM0556 (antibody, human IgG1, lambda)
# heavy: not shown
# light: B14 light
# chain: not shown
# notes: Half-arm (monovalent) anti-human CSF1R antibody, three chains as BIM0542; Heavy chain entry ends in X = K or absent; also called multispecific molecule 84; aCSF1R BI123 C1-R3B half-arm antibody
# B16: BIM0548 (antibody, human IgG1, lambda)
# heavy: B1 heavy with G99S, F104G
# light: B1 light
# chain: not shown
# B17: BIM0554 (antibody, human IgG1, lambda)
# heavy: not shown
# light: B14 light
# chain: not shown
# Target: T1, human CSF1R (human, UniProt P07333 20-972)
# T1 construct: whole, on cells; also called hCSF1R
# Assay: flow cytometry on HEK-293T cells stably transduced with human CSF1R; anti-human Fc APC; percent APC positive
# Experimental: HEK-293T cells were lentivirally transduced with human CSF1R and stable cell lines were generated. Nearly all transduced cells expressed high levels of CSF1R. Cells were washed with PBS containing 0.5% BSA and 0.1% sodium azide (staining buffer) and added to 96-well V-bottom plates with 100,000 cells/well. Human anti-CSF1R monovalent antibodies were added to the cells in 2.5 fold serial dilutions and incubated for 2 hour at room temperature. The plates were washed twice with staining buffer. The secondary antibody against human Fc conjugated to APC was added at 1:200 dilution (1.5 mg/ml stock) and incubated with the cells for 1 hour at 4° C. followed by washing with staining buffer. Cells were subsequently stained with a live/dead dye to exclude any dying cells and were fixed for 10 minutes with 4% paraformaldehyde at room temperature. The plates were read on CytoFLEX LS (Beckman Coulter). Data was calculated as the percent-APC positive population.
# T1 sequence (P07333 20-972): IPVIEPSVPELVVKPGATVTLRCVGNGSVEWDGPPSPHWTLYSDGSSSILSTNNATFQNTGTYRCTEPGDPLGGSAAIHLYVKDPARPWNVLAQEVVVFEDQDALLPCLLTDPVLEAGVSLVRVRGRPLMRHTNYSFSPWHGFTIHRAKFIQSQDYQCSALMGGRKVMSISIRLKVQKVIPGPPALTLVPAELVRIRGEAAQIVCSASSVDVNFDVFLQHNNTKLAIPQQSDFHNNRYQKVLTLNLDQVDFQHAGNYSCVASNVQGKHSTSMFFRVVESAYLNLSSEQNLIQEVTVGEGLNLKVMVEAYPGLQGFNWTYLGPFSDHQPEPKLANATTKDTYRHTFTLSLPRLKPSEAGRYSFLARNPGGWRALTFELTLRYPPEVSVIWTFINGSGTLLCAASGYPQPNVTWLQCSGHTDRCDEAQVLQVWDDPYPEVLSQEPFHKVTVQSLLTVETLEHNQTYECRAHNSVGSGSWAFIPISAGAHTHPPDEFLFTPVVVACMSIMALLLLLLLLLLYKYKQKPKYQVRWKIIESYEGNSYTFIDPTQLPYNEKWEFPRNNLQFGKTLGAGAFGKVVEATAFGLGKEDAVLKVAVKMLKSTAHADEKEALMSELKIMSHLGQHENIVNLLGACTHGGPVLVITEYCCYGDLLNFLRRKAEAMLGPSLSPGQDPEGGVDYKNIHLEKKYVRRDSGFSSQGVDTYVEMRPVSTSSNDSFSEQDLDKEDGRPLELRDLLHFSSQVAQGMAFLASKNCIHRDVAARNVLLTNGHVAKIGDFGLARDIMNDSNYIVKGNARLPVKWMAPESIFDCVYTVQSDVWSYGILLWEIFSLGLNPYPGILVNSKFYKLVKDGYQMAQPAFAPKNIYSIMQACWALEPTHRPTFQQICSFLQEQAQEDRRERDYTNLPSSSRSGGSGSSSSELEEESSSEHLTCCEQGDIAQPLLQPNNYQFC
row,Binder,binding result
1,B1,binds
2,B2,binds
3,B3,binds
4,B4,binds
5,B5,binds
6,B6,binds
7,B7,binds
8,B8,binds
9,B9,binds
10,B10,binds
11,B11,binds
12,B12,binds
13,B13,binds
14,B14,binds
15,B15,binds

# Target: T2, human CSF1R-Fc ECD (human, UniProt P07333 20-517)
# T2 construct: extracellular domain; not shown: Fc part of the coated reagent, not described
# Assay: ELISA, plate coated with 2 µg/mL human CSF1R, monovalent antibody titrated, anti-human Fc HRP
# Experimental: Microplates were separately coated with 2 μg/mL of human or cyno CSF1R in 100 μL and blocked with 2% BSA. Serial dilutions of unlabeled monovalent human antibodies (11 points, 3-fold dilutions, 400 nM to […]) were transferred to the coated and blocked plates at 75 μL/well and incubated for 1 hr at room temperature. Plates were washed three times and incubated for 30 mins with anti-human Fc horseradish peroxidase conjugate followed by addition of TMB, a substrate of HRP. The plates were developed for 5 mins, stopped with 1M HCL and read at a wavelength of 450 nm.
# T2 sequence (P07333 20-517): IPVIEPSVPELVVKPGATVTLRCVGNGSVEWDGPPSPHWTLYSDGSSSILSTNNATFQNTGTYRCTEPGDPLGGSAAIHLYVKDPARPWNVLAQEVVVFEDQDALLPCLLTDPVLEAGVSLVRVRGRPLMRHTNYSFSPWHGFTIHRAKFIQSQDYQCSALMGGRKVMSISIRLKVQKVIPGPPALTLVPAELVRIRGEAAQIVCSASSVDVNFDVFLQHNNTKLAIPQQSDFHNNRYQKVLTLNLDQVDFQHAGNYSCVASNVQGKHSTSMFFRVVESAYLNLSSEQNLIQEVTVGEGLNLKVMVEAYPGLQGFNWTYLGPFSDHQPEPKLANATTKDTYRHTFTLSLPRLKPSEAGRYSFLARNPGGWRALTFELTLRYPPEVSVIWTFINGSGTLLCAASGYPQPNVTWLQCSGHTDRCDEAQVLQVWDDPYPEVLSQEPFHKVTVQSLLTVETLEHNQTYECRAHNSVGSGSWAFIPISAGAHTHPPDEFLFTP
row,Binder,binding result
1,B1,binds
2,B2,binds
3,B3,binds
4,B4,binds
5,B5,binds
6,B6,binds
7,B7,binds
8,B8,binds
9,B9,binds
10,B10,binds
11,B11,binds
12,B12,binds
13,B13,binds
14,B14,binds
15,B15,binds

# Target: T1, human CSF1R
# Assay: cell-based or functional assay
row,Binder,IC50 of reduction of MCP-1 (CCL2) secretion by human monocytes cultured with hCSF-1 (electrochemiluminescence)
1,B16,≤ 30 nM
2,B17,≤ 30 nM
